The source of these data is PMC10726160.

In this experiment the target is GW182 (TNRC6A), short isoform (mouse (endogenous in OT-I CD8+ T cells)). Briefly: co-IP; anti-GW182 antibody on Protein G Dynabeads; lysates of naive (d0) and d6 activated OT-I CD8+ T cells, 2 x 10^7 cells per IP; bound and unbound fractions blotted with Ago2 and GW182 antibodies.

As for “Argonaute 2 (Ago2) (from UniProt Q8CJG0 1-860) (natural protein)”, the percent of Ago2 associated with immunoprecipitated GW182 (d6) is 50%.
